Where no end group is shown, it is not given here. The star is where a group is joined. DMNB = 4,5-dimethoxy-2-nitrobenzyl photo-removable caging group, COc1cc(C*)c([N+](=O)[O-])cc1OC
Experiments:
integrin β1 = integrin β1 (Homo sapiens, UniProt P05556); details: previously shown; cited from earlier work
[1] = Un-caging of the caged peptide targeter in solution by HPLC-UV; format: physicochemical; details: ten seconds post illumination, retention time shifts to that of the non-caged targeter
Description: HPLC assays were performed on an HP 1100 HPLC system. Samples were injected in 50-μl volumes onto a C18 column. The column was eluted with an aqueous solution at 1 ml/min. The peptides were detected by a UV detector with absorbance wavelength set at 230 nm.
In order to determine the un-caging ability of the targeter (e.g., the peptide GGGGY(DMNB)IGSR—NH2 (SEQ ID NO: 2)) leading to its transformation to the active state, solutions of non-caged peptide (GGGGYIGSR-NH2) (SEQ ID NO: 2), or caged peptides subjected or not subjected to 1 min of illumination were evaluated by HPLC-UV. Retention time in the column of the non-caged targeter was ˜20 min (FIG. 3A) while that of the non-illuminated caged targeter was longer (˜30 min, FIG. 3B) due to the caging group existence which increases the hydrophobicity of the peptide. Ten seconds post illumination a shift in the retention time had occurred and the peptide had exited the column after ˜20 min (FIG. 3C).

Chain of integrin β1 (P05556 21-798, species assumed): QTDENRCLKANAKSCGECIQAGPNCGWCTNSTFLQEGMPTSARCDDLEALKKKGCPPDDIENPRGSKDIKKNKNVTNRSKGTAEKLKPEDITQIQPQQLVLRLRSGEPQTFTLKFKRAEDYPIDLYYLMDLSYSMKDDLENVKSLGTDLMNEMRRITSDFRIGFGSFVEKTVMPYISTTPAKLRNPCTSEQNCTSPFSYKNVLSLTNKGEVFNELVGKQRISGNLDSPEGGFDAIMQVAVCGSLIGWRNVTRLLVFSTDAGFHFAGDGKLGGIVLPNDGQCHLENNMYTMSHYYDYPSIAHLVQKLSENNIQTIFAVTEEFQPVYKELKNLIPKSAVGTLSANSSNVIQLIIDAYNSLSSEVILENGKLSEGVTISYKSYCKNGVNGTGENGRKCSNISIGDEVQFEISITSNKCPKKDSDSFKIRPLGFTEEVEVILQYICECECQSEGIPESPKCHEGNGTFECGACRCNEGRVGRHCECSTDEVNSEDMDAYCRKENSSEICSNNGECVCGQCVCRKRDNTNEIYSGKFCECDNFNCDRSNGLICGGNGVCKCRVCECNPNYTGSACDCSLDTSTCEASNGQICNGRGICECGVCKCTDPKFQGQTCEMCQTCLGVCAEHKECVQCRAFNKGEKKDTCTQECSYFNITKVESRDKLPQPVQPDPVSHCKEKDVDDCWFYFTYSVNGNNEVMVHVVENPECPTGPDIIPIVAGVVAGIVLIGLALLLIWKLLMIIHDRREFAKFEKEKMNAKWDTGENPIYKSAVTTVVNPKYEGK

CDPGYIGSR
cell adhesion and migration (integrin β1): promote cell adhesion and migration

GGGGY(DMNB)IGSR—NH2 (GGGGY(DMNB)IGSR-NH2; N-terminus assumed; SMILES CC[C@H](C)[C@H](NC(=O)[C@H](Cc1ccc(OCc2cc(OC)c(OC)cc2[N+](=O)[O-])cc1)NC(=O)CNC(=O)CNC(=O)CNC(=O)CN)C(=O)NCC(=O)N[C@@H](CO)C(=O)N[C@@H](CCCNC(=N)N)C(N)=O)
release of the caging group from the peptide after illumination [1]: quick release of the caging group

YIGSR-NH2
cell adhesion and migration (integrin β1): promote cell adhesion and migration

Source: US20130004522A1, “PHOTOTRIGGERED NANOPARTICLES FOR CELL AND TISSUE TARGETING” (priority 2009, published 2013)
